According to IntAct's records for PubMed 30902834:

B1: Protein-arginine N-acetylglucosaminyltransferase SseK3 (Salmonella typhimurium (strain SL1344)), P0DUJ7 (parent)
chain: MFSRVRGFLSCQNYSHTATPAITLPSSGSANFAGVEYPLLPLDQHTPLLFQWFERNPSRFGENQIPIINTQQNPYLNNIINAAIIEKERTIGVLVDGNFSAGQKKALAKLEKQYENIKVIYNSDLDYSMYDKKLSDIYLENIAKIEAQPANVRDEYLLGEIKKSLNEVLKNNPEESLVSSHDKRLGHVRFDFYRNLFLLKGSNAFLEAGKHGCHHLQPGGGCIYLDADMLLTGKLGTLYLPDGIAVHVSRKGNSMSLENGIIAVNRSEHPALKKGLEIMHSKPYGDPYIDGVCGGLRHYFNCSIRHNYEEFCNFIEFKHEHIFMDTSSLTISSWR
B2: Protein-arginine N-acetylglucosaminyltransferase SseK3 (Salmonella typhimurium (strain SL1344)), P0DUJ7 (parent)
chain: B1 chain
partner: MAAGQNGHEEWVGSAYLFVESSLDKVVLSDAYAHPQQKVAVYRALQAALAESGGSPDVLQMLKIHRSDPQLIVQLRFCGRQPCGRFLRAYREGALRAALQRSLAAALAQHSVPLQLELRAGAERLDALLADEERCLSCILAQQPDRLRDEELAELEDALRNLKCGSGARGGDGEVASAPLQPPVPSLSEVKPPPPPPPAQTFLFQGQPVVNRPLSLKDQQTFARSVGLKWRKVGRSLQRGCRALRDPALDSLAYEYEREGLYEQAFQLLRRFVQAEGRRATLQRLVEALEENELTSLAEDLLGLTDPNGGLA

Variants of: B1
Conditions: with tr10b_human TNFRSF10B
With E258A the “effect of a mutation on the interaction” value was “disrupting interaction”.

Variants of: B2
Conditions: with tradd_human TRADD
For E258A, the “effect of a mutation on the interaction” value was “disrupting interaction”.
